Results as given in patent US20220249692A1 (BIOSCEPTRE AUST, published 2022).

Molecular target: T1, E200 epitope of P2X7R
T1 peptide: GHNYTTNILPGLNITC
Assay: ELISA, antibody-conjugated liposomes on E200 epitope

B1: single domain antibody (variable domain of SEQ ID NO: 7) conjugated to gemcitabine liposome nanoparticles (VHH)
VHH: EVQLLESGGGLVQPGGSLRLSCAASGFTFRNHDMGWVRQAPGKGLEWVSAISGSGGSTYYANSVKGRFTISRDNSKNTLYLQMNSLRAEDTAVYYCAEPKPMDTEFDYRSPGTLVTVSS
modifications: activated via Traut's reagent (thiolated) and conjugated to maleimide groups of Maleimido-Succinyl-PEG4000-Oleate on the liposome
notes: also called BIL03s; BIL03s-coated nanoparticles
- binding result: binds
